# Experimental data: the supplement of paper PMC12042874
# ± gives the uncertainty stated by the source.
# Assay: amyloid nucleation score (Sup35N fusion, yeast selection) (log enrichment); library NNK1; higher = more nucleation; inactive = no reads after selection
# How it was run: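 Peptides of 20 random codons, each fused to Sup35N, were expressed in psi-negative yeast. Cells were induced with 100 μM copper sulfate for 24 hours and grown 7 days at 30°C on medium lacking adenine and uracil, and plasmid inserts before and after selection were Illumina-sequenced. Nucleation scores are DiMSum log enrichments of output over input reads, centred on the mode score of non-aggregating sequences, and sequences under 100 input reads were excluded.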
row,Substance,amyloid nucleation score
1,IGVVVWRPNLILRKEYLWRV,-0.858 ± 2.1
2,AFRQVRKIVQAGTGGVQ,-0.324 ± 0.58
3,SLGCYCRVKIVWVCILGYTA,0.526 ± 0.27
4,RKRSSRVIDVTGRWAVLTYP,0.074 ± 0.46
5,HFKRWLVNLFLTEFEKSYGV,-1.28 ± 0.62
6,SLPAEYSRRPKWVGASTVDW,0.527 ± 0.55
7,STVAGRWNYCSVTLLCVGFF,1.45 ± 0.31
8,CDNQVSGLNGS,inactive
9,VDRCGFGVFATVGMSCMDSF,0.918 ± 0.45
10,MCNDGSYYAILACGVSLRVL,inactive
11,YRGMGTTPKFT,0.356 ± 1
12,IYKVLYYEVNKFWTTIVSSR,-0.651 ± 0.29
13,VAFNICSENRLVNFR,-0.577 ± 0.4
14,MSIQCTSALGPL,2.13 ± 0.35
15,DILCASPTLLAE,0.161 ± 0.49
16,WCSLRSDW,inactive
17,IKSHNMYYGRRRGVFLGPDR,-0.075 ± 0.44
18,SSMNSWTDFFHFCST,0.032 ± 0.97
19,GTSESLGYYSVLRMDIYFGS,inactive
20,RYEGKVKHYFKFKIKPMQV,0.809 ± 0.41
21,PQKHSFAWHRMVATLALSYR,1.17 ± 0.93
22,FVDFMQRNWGLVRVPCHVSL,inactive

row,Substance,amyloid nucleation score
1,SFVNTNHRMRRCYTTENNPS,-0.796 ± 0.68
2,RSKNWMVNRDWGSKVDRLAN,0.089 ± 0.86
3,MFGFHRNRDDHSCIHFTFK,2.58 ± 0.15
4,TLVCNGQISTNLYYVKVGSS,2.83 ± 0.12
5,YFGKYLIWWFMSKLAV,-0.388 ± 0.29
6,WLVQAQALQGWKCFLHKISF,-0.186 ± 0.48
7,ISYESWVLRGIARGFQGLVG,-1.09 ± 0.7
8,LVLSWSWICFL,7.39 ± 0.059
9,RASDRSSIMICF,0.382 ± 1.4
10,YVDLFIMPIACGTSVMHLNL,5.464 ± 0.047
11,GTGTAPGINPWLLDSFPAPV,0.378 ± 0.28
12,SLVNFVAMGARDRIPCVYKR,-1.03 ± 2.4
13,SWSITPNKKFDKTVSFQYHD,inactive
14,QWGRMPMFLIDRTGGWASMG,0.409 ± 0.32
15,LGTKL,0.601 ± 0.63
16,MSNMHNYLRLIWDTVCIQF,-0.083 ± 0.77
17,CLVWLGNNFLDSLWGEGGRA,-0.291 ± 0.38
18,VHRIYKCALRVSRADSLIVT,inactive
19,GGLWYTSTYSIYG,2.42 ± 0.48
20,YIFAAWGGNKTHLCGQIKY,0.862 ± 0.18
21,FYFGTSDIPGFFNKSIYLVP,0.435 ± 0.38
22,FMHAFRNQRLNLAGLGFRVA,0.573 ± 0.62

row,Substance,amyloid nucleation score
1,SYLGSAAIYVCLAGRPSGQR,-0.725 ± 1.2
2,SECYFSVWFANTALQNRV,0.034 ± 0.4
3,GYLCLGSCNRSVSLLSSTGS,0.407 ± 0.47
4,RNWLLDTNSLQVMSPYIFEV,-0.41 ± 0.74
5,IIRRGSRSFYIFMVTFKRRN,0.996 ± 0.52
6,LAFTNRVVVWESWSAMAVRW,-0.173 ± 0.66
7,WVFVNYWSGSKNQ,2.96 ± 0.14
8,EMEVLSVPSVLLVIVVR,-1.04 ± 0.66
9,CWRSVCGLLATGNQYFFGNA,4.88 ± 0.07
10,HSYTRIE,-0.413 ± 0.24
11,WYYYTVSSEGSNSAGTKLRG,0.376 ± 0.38
12,TNFCGVNPGRIIRLWEDRSW,-0.762 ± 0.45
13,MRYVMTFFFHSYKA,-1.15 ± 0.91
14,NYRSGVLELWYGRSMPWS,0.327 ± 0.42
15,PLLYLPNWLISCFYLLF,0.263 ± 0.53
16,TEGPSN,inactive
17,LRLRVTNVLILGSLGIDEMY,2.37 ± 0.28
18,DSYWFRRLC,0.22 ± 0.71
19,EFGNVIRVCNLI,-0.289 ± 0.34
20,IGRMIRVCYVVCYEVDMTTS,0.725 ± 0.47
21,SRGVQGMYDDYKDGGLLYLV,-0.228 ± 0.19
22,HCVEVSYKTSYAKELSFRVC,-0.142 ± 1.1

row,Substance,amyloid nucleation score
1,NHSNTCEWRSCRP,0.551 ± 0.61
2,KFKKFGSSDGLDCDRYILVG,-0.799 ± 1.2
3,NPPGGDIYEC,-0.721 ± 0.53
4,WYRVCV,-0.603 ± 0.65
5,RREFYFLLVIALKSV,1.32 ± 0.31
6,CNFSQYMRVHHTSYLEPTDH,3.22 ± 0.12
7,LIRMHTICVWDSSVIMSIMA,-0.354 ± 0.44
8,LLVLYCALLMRLSGLGHAWG,-0.269 ± 0.51
9,VRGVSVGSYKSVAELGGTQT,-0.449 ± 1.3
10,RSCLDGSRVMVSWR,0.305 ± 0.46
11,VRLFLCFARSMDVRYFILVG,0.459 ± 0.57
12,YIDVGICYGGDERVLFLV,1.2 ± 0.61
13,YWCMLARSLDDEGLFWRTGG,-0.38 ± 0.33
14,LVALDNAENFRSRKQWIGIR,-0.599 ± 1.2
15,SSVARIIWKFCRFSTVGVCF,0.858 ± 0.59
16,DRFGWF,-0.148 ± 0.32
17,PNYEVDCDMFYSSFVGGFRV,0.173 ± 1.4
18,DAEFRHGAIIGLMVGGVVIA,3.45 ± 0.22
19,TCNHYNRVVFQSNVIYLIHV,2.77 ± 0.15
